± gives the standard deviation of the averaged measurements.
B1: library; a variant is named by its letters at N, in order (parent)
chain: GCUGUCACCGGUGCUUGGUACGUUAUAUUCAGCCGGUCUGAUGAGUCUNNNNNNAGACGAAACAGC

Experiments:
(6R,S)-folinic acid [1] = variants of: B1; assay: FACS-Seq fitted mean relative fluorescence mCherry/BFP without ligand (log10 relative fluorescence); HEK293T overexpressing SLC46A1; higher = higher reporter protein expression; conditions: without (6R,S)-folinic acid; ligand present: no
How it was run: (§1)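 An mCherry reporter containing the ribozyme switch and an EF1α-BFP marker were introduced by lentivirus into HEK293T libraries. Cells were enriched, incubated 48 h with or without ligand, sorted into 6 bins by mCherry/BFP, and bin genomic DNA was PCR-amplified, barcoded and sequenced on MiSeq. Fluorescence represents the normalized fitted normal mean of the bin counts. Fitting was done on log10(mCherry/BFP), scaling to five spiked-in control ribozymes.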

(6R,S)-folinic acid [2] = variants of: B1; assay: normalized RNA/DNA level without ligand (relative to sTRSVctl = 100) (log10 (% of sTRSVctl)); HEK293T overexpressing SLC46A1; higher = less ribozyme self-cleavage, higher mRNA level; conditions: without (6R,S)-folinic acid; ligand present: no
Experimental: (§2)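 Hammerhead (sTRSV) ribozyme switch libraries with a ligand aptamer grafted on stem I and a randomized N4-6 loop II, cloned into the 3' UTR of mCherry and transiently transfected into HEK293T cells; RNA-Seq 72 h post transfection with ligand added 1 h before transfection; RNA read count / plasmid DNA read count normalized to the non-cleaving sTRSVctl (x100), log10; sequences with >100 DNA reads. FACS-Seq: lentiviral library sorted into 6 bins after 48 h ligand, log-normal fit mean of mCherry/BFP scaled to controls. Printed sequences are partial switch sequences.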

(6R,S)-folinic acid [3] = variants of: B1; assay: FACS-Seq fitted mean relative fluorescence mCherry/BFP with ligand (log10 relative fluorescence); HEK293T overexpressing SLC46A1; ligand concentration (+) FACS-Seq: 6 mM; higher = higher reporter protein expression; conditions: with (6R,S)-folinic acid; ligand present: yes
How it was run: as §1

(6R,S)-folinic acid [4] = variants of: B1; assay: normalized RNA/DNA level with ligand (relative to sTRSVctl = 100) (log10 (% of sTRSVctl)); HEK293T overexpressing SLC46A1; ligand concentration (+) RNA-Seq: 6 mM; higher = less ribozyme self-cleavage, higher mRNA level; conditions: with (6R,S)-folinic acid; ligand present: yes
Experimental: as §2

| Variant | FACS-Seq fitted mean (log10) ((6R,S)-folinic acid [1]) | normalized RNA/DNA level without ligand (log10) ((6R,S)-folinic acid [2]) | FACS-Seq fitted mean (log10) ((6R,S)-folinic acid [3]) | normalized RNA/DNA level with ligand (log10) ((6R,S)-folinic acid [4]) |
| --- | --- | --- | --- | --- |
| CGCAAC | 0.453 ± 0.13 | 2.027 ± 0.0066 | 0.417 ± 0.14 | 1.99 ± 0.013 |
| AUCUCG | 0.399 ± 0.02 | 1.976 ± 0.012 | 0.435 ± 0.35 | 2.04 ± 0.035 |
| UACGAC | -0.293 ± 0.061 | 2.013 ± 0.0052 | -0.283 ± 0.015 | 2.01 ± 0.039 |
| AUAAUA | 0.469 ± 0.017 | 1.982 ± 0.0023 | 0.369 ± 0.62 | 1.992 ± 0.015 |
| UGAGGA | 0.309 ± 0.047 | 1.839 ± 0.0062 | 0.598 ± 0.2 | 1.99 ± 0.031 |
| CAGAGG | -0.0517 ± 0.073 | 1.9 ± 0.016 | 0.0689 ± 0.4 | 2.002 ± 0.0054 |
| GGUAAG | 0.539 ± 0.082 | 1.919 ± 0.0032 | 0.424 ± 0.051 | 2 ± 0.036 |
| AAUAAG | 0.271 ± 0.2 | 1.9 ± 0.024 | 0.323 ± 0.13 | 1.98 ± 0.038 |
| AAGGGA | 0.125 ± 0.041 | 1.949 ± 0.0036 | 0.0354 ± 0.14 | 2.03 ± 0.03 |
| GUCUCG | 0.378 ± 0.032 | 1.997 ± 0.0037 | 0.197 ± 0.26 | 2.003 ± 0.013 |
| GAGUAG | 0.282 ± 0.0024 | 1.936 ± 0.017 | 0.0667 ± 0.095 | 1.99 ± 0.034 |
| CUGCAG | 0.542 ± 0.11 | 1.91 ± 0.021 | 0.679 ± 0.4 | 1.977 ± 0.0074 |
| GAUGUG | 0.409 ± 0.09 | 1.889 ± 0.0086 | 0.576 ± 0.27 | 2.02 ± 0.021 |
| AAAUAA | 0.0525 ± 0.017 | 1.94 ± 0.023 | 0.383 ± 0.051 | 1.98 ± 0.038 |
| AAAUCG | 0.416 ± 0.0066 | 1.955 ± 0.0094 | 0.42 ± 0.12 | 2.03 ± 0.036 |
| GUUGGU | 0.346 ± 0.21 | 1.98 ± 0.027 | 0.126 ± 0.09 | 2.02 ± 0.029 |
| CAACGA | 0.682 ± 0.03 | 2.008 ± 0.0085 | 0.653 ± 0.17 | 2.005 ± 0.018 |
| GAGCGA | 0.146 ± 0.064 | 1.997 ± 0.0086 | 0.145 ± 0.15 | 2.035 ± 0.011 |
| UUAGGG | 0.0949 ± 0.0093 | 1.776 ± 0.008 | 0.324 ± 0.11 | 2 ± 0.021 |
| AGACAG | 0.659 ± 0.017 | 1.941 ± 0.0083 | 0.854 ± 0.36 | 2.01 ± 0.026 |
| UAUACG | 0.496 ± 0.089 | 1.76 ± 0.018 | 0.905 ± 0.26 | 1.96 ± 0.02 |
| CUUAUU | 0.473 ± 0.12 | 1.985 ± 0.0074 | 0.678 ± 0.072 | 2.01 ± 0.024 |
| CGUCUC | 0.692 ± 0.063 | 2.06 ± 0.013 | 0.48 ± 0.48 | 1.996 ± 0.015 |
| AUAAAU | 0.45 ± 0.08 | 1.951 ± 0.017 | 0.359 ± 0.082 | 2.028 ± 0.007 |

| Variant | FACS-Seq fitted mean (log10) ((6R,S)-folinic acid [1]) | normalized RNA/DNA level without ligand (log10) ((6R,S)-folinic acid [2]) | FACS-Seq fitted mean (log10) ((6R,S)-folinic acid [3]) | normalized RNA/DNA level with ligand (log10) ((6R,S)-folinic acid [4]) |
| --- | --- | --- | --- | --- |
| CCGAAG | -0.309 ± 0.021 | 1.869 ± 0.0079 | -0.882 ± 0.26 | 2 ± 0.039 |
| CAAGGG | -0.428 ± 0.17 | 1.88 ± 0.02 | -0.164 ± 0.057 | 1.99 ± 0.013 |
| GCUGUU | 0.356 ± 0.02 | 2.043 ± 0.0085 | 0.145 ± 0.17 | 2.04 ± 0.042 |
| GUGUCA | 0.425 ± 0.12 | 2.008 ± 0.0044 | 0.477 ± 0.009 | 2.03 ± 0.033 |
| AUAGCA | 0.356 ± 0.058 | 1.9776 ± 0.00078 | 0.516 ± 0.016 | 2.03 ± 0.028 |
| AUAGCC | 0.385 ± 0.019 | 2.036 ± 0.0053 | 0.591 ± 0.43 | 2.03 ± 0.051 |
| UCGCAU | 0.644 ± 0.045 | 1.97 ± 0.018 | 0.661 ± 0.25 | 2 ± 0.042 |
| AAGAAG | 0.22 ± 0.028 | 1.8593 ± 0.00099 | 0.315 ± 0.053 | 2 ± 0.052 |
| CUCCGG | 0.136 ± 0.061 | 2.044 ± 0.0029 | -0.307 ± 0.12 | 2.05 ± 0.028 |
| ACCGUU | 0.123 ± 0.046 | 2.008 ± 0.016 | -0.259 ± 0.15 | 2.01 ± 0.038 |
| ACAAGG | 0.526 ± 0.062 | 1.913 ± 0.014 | 0.524 ± 0.13 | 2.016 ± 0.014 |
| UGGGCC | 0.229 ± 0.0089 | 2.048 ± 0.012 | 0.157 ± 0.022 | 2.03 ± 0.0098 |
| AACCCC | 0.581 ± 0.12 | 2.013 ± 0.0022 | 0.492 ± 0.041 | 1.99 ± 0.045 |
| CAAGAA | 0.425 ± 0.21 | 1.95 ± 0.0095 | 0.427 ± 0.2 | 2 ± 0.024 |
| CGGGAA | 0.288 ± 0.27 | 1.98 ± 0.024 | 0.519 ± 0.063 | 2.02 ± 0.046 |
| CGGGAU | 0.211 ± 0.017 | 1.97 ± 0.029 | 0.0466 ± 0.17 | 2 ± 0.049 |
| UAAGAA | 0.023 ± 0.078 | 1.882 ± 0.011 | -0.19 ± 0.37 | 1.96 ± 0.022 |
| ACCUAU | 0.349 ± 0.089 | 2.019 ± 0.018 | 0.644 ± 0.022 | 2.05 ± 0.033 |
| UGAAAA | 0.648 ± 0.13 | 1.98 ± 0.021 | 0.692 ± 0.22 | 1.992 ± 0.019 |
| UGAAAG | 0.184 ± 0.14 | 1.8081 ± 0.0016 | 0.436 ± 0.3 | 1.98 ± 0.031 |
| UAGAGG | 0.0109 ± 0.02 | 1.561 ± 0.013 | 0.481 ± 0.11 | 1.9 ± 0.052 |
| GGAGCC | 0.129 ± 0.011 | 2.0238 ± 0.0014 | 0.0129 ± 0.069 | 2.026 ± 0.02 |
| UAAUUG | 0.377 ± 0.016 | 1.794 ± 0.0071 | 0.456 ± 0.012 | 1.972 ± 0.017 |
| CAUAAU | 0.15 ± 0.15 | 1.955 ± 0.011 | 0.294 ± 0.038 | 1.997 ± 0.013 |

| Variant | FACS-Seq fitted mean (log10) ((6R,S)-folinic acid [1]) | normalized RNA/DNA level without ligand (log10) ((6R,S)-folinic acid [2]) | FACS-Seq fitted mean (log10) ((6R,S)-folinic acid [3]) | normalized RNA/DNA level with ligand (log10) ((6R,S)-folinic acid [4]) |
| --- | --- | --- | --- | --- |
| UUUCAG | 0.263 ± 0.0041 | 1.916 ± 0.013 | -0.0672 ± 0.0029 | 2.011 ± 0.02 |
| AUUAGA | 0.0629 ± 0.005 | 1.965 ± 0.004 | -0.224 ± 0.063 | 2.01 ± 0.033 |
| CUCGAG | 0.167 ± 0.042 | 1.96 ± 0.02 | 0.115 ± 0.2 | 1.977 ± 0.012 |
| GAUGAU | 0.196 ± 0.072 | 1.935 ± 0.019 | 0.199 ± 0.049 | 1.98 ± 0.034 |
| GCAUUA | 0.539 ± 0.07 | 1.995 ± 0.011 | 0.484 ± 0.1 | 2.03 ± 0.028 |
| GUCACG | 0.0918 ± 0.029 | 2.024 ± 0.0084 | 0.228 ± 0.096 | 2.042 ± 0.015 |
| CACGCA | 0.164 ± 0.12 | 2.025 ± 0.013 | 0.119 ± 0.063 | 2.024 ± 0.011 |
| UGAGCU | 0.387 ± 0.081 | 2 ± 0.013 | 0.479 ± 0.087 | 2.019 ± 0.012 |
| GCUGAU | 0.277 ± 0.044 | 2.036 ± 0.0025 | 0.23 ± 0.0065 | 2.014 ± 0.019 |
| GUAAUA | -0.154 ± 0.025 | 1.996 ± 0.006 | 0.161 ± 0.059 | 1.97 ± 0.039 |
| AAGCAA | 0.352 ± 0.078 | 1.964 ± 0.015 | 0.361 ± 0.1 | 1.994 ± 0.012 |
| GACAGA | 0.403 ± 0.0081 | 1.994 ± 0.017 | 0.442 ± 0.15 | 2.01 ± 0.035 |
| GAGAGA | 0.2 ± 0.041 | 1.946 ± 0.011 | 0.279 ± 0.16 | 2.01 ± 0.038 |
| UAAGGG | -0.0665 ± 0.0016 | 1.601 ± 0.002 | 0.263 ± 0.16 | 1.92 ± 0.025 |
| UGCCAC | 0.366 ± 0.066 | 1.985 ± 0.017 | 0.438 ± 0.13 | 1.977 ± 0.013 |
| GCAAGA | 0.477 ± 0.0057 | 2.022 ± 0.0049 | 0.457 ± 0.12 | 2.04 ± 0.024 |
| UGCUCU | 0.473 ± 0.12 | 2.056 ± 0.014 | 0.2 ± 0.019 | 2.06 ± 0.029 |
| GUAUCA | 0.376 ± 0.03 | 2.045 ± 0.01 | 0.586 ± 0.01 | 2.04 ± 0.03 |
| ACACAU | 0.23 ± 0.019 | 1.965 ± 0.0028 | 0.348 ± 0.25 | 2 ± 0.043 |
| UUAUUU | 0.415 ± 0.024 | 1.982 ± 0.0056 | 0.569 ± 0.26 | 2 ± 0.022 |
| UGACGG | -0.24 ± 0.039 | 1.748 ± 0.0057 | 0.0392 ± 0.065 | 1.99 ± 0.044 |
| CCAAGU | 0.0806 ± 0.0022 | 2.038 ± 0.0087 | 0.036 ± 0.024 | 2.04 ± 0.047 |
| UACAUA | 0.329 ± 0.1 | 1.959 ± 0.012 | 0.058 ± 0.017 | 2.002 ± 0.0044 |
| UACAUG | 0.195 ± 0.2 | 1.76 ± 0.0019 | 0.236 ± 0.015 | 1.97 ± 0.019 |
